Among the data in patent US20140140926A1 are Ki and Kd values, retold here.

No end group written: not given here.

Assay [1] addresses soluble hSIRP-alpha (human) (UniProt P78324). The assay can be described thus: inhibition of soluble hSIRP-alpha binding to polypeptide beads by soluble peptide.
The target is the same in assay [2]. The assay can be described thus: flow cytometry, biotinylated peptide on streptavidin polystyrene beads binding soluble hSIRP-alpha, saturation binding fit. (Flow cytometry measures light scatter and fluorescence of single cells or particles in a stream.)

As a reminder, the Ki is the equilibrium dissociation constant of an inhibitor or competing ligand from its target. The low end stands for tighter binding, the high end for weaker binding. In assay [1], EVTELTREGE (synthesized without attachment of biotin) [FG-hairpin (10-aa, …)] gave a Ki of 100 to 200 nM.

Usually Kd stands for the constant that tells how readily two partners part at equilibrium. High values mean lower affinity, low ones higher affinity. On to GNYTCEVTELTREGETIIELK (also: biotin via aminohexanoic acid (C6) or PEG linker, site not given here) [FG-peptide (21-aa, …)], for which, in assay [2], the Kd lay within 110 to 160 nM.
